Values quoted from earlier work in article PMC5590664.

Target: HIV-1 capsid protein (full-length) (Human immunodeficiency virus 1) (UniProt O93182)

HIV-1 capsid protein (full-length), sequence (O93182 133-363): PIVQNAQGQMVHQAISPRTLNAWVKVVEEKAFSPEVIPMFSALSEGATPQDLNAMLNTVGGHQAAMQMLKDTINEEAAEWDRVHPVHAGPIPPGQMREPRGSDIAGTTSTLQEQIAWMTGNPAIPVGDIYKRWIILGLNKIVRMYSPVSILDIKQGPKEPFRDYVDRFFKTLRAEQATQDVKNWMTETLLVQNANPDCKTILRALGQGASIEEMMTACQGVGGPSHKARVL

## HIV-1 capsid protein (full-length) (from UniProt O93182)
  Kd: 40 µM
